Consider eight molecules from paper PMC7555893, “Structural role of essential light chains in the apicomplexan glideosome” (Communications Biology, 2020).

Assay [1] addresses Pre-complex of TgELC2 with TgMyoA-C (T. gondii) (UniProt O00934). Description: ITC; 200 uM protein (syringe) injected 19 x 2 uL into 20 uM pre-formed complex of light chain and MyoA peptide (cell, 1:1.1); 20 mM HEPES pH 7.5, 150 mM NaCl, 0.5 mM TCEP with 1 mM CaCl2; 25 °C; one-site model. (In general: In ITC the heat of successive injections is recorded.)
Assay [2] deals with P. falciparum myosin A tail-interacting protein, short construct (MTIP-S) (P. falciparum 3D7) (UniProt Q8I4W8). As to the kind of experiment: ITC; MTIP in the cell, PfMyoA peptide in the syringe; one-site model; the conditions of this titration are not told.
The target in assay [3] is Pre-complex of TgELC2 R17A with TgMyoA-C (T. gondii) (UniProt O00934). As to the kind of experiment: ITC; 200 uM protein (syringe) injected 19 x 2 uL into 20 uM pre-formed complex of light chain and MyoA peptide (cell, 1:1.1); 20 mM HEPES pH 7.5, 150 mM NaCl, 0.5 mM TCEP with 1 mM CaCl2; 25 °C; one-site model.
For assay [4], the target named is Pre-complex of TgELC1 with TgMyoA-C (T. gondii) (UniProt O00934). Described as above.
In assay [5] the target is T. gondii essential light chain 2 (TgELC2) (T. gondii). As to the kind of experiment: ITC; 200 uM peptide (syringe) injected 19 x 2 uL into 20 uM protein (cell); 20 mM HEPES pH 7.5, 150 mM NaCl, 0.5 mM TCEP with 5 mM EDTA; 25 °C; one-site model.
Assay [6] concerns the target T. gondii essential light chain 1 (TgELC1) (T. gondii). The assay is described as above.
For assay [7], the target named is T. gondii essential light chain 2 (TgELC2) (T. gondii). As to the kind of experiment: ITC; 200 uM peptide (syringe) injected 19 x 2 uL into 20 uM protein (cell); 20 mM HEPES pH 7.5, 150 mM NaCl, 0.5 mM TCEP with 5 mM CaCl2; 25 °C; one-site model.
Assay [8] concerns the target TgELC2 S102E (phosphomimetic) (T. gondii). The description is as above.
A further assay has as its target TgELC2 S102A (T. gondii). Described as above.
For another assay, the target named is TgELC2 S101A (T. gondii). The assay is described as above.
Assay [9] deals with TgELC2 E10A+H110A (T. gondii). The assay is described as above.
The target in assay [10] is T. gondii essential light chain 1 (TgELC1) (T. gondii). The assay is described as above.
The next assay has as its target TgELC2 E10A (T. gondii). Described as above.
The next assay deals with TgELC2 F79A (T. gondii). The description is as above.
The target in another assay is T1, MTIP residues 77-204 (P. falciparum 3D7, UniProt Q8I4W8 77-204).
T1 construct: source: recombinantly expressed as a dimeric complex with PfMyoA-C, purified with PfELC (NiNTA IMAC, TEV, SEC)
T1 sequence: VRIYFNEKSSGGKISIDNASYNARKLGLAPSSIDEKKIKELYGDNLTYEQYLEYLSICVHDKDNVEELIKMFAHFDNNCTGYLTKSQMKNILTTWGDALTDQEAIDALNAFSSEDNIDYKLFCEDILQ
Description: crystal structure. To be noted: both partners purified.

Assay [11] deals with T2, Pre-complex of MTIP-S with PfMyoA-C (P. falciparum 3D7 | P. falciparum, UniProt Q8I4W8;Q8IDR3).
T2 construct: also called MTIP pre-complex with MyoA-C; MTIP/PfMyoA-C complex; source: formed from purified MTIP-S (E. coli) and the MyoA peptide in 1:1.1 molar ratio, 1 h at 4 °C
T2 sequence 1: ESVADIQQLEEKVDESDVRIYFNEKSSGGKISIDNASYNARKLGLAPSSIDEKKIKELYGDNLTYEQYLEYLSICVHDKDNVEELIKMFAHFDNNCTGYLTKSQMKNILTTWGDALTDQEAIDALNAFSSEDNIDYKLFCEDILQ
T2 sequence 2: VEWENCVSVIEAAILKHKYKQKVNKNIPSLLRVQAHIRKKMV
As to the kind of experiment: ITC; 200 uM protein (syringe) injected 19 x 2 uL into 20 uM pre-formed complex of light chain and MyoA peptide (cell, 1:1.1); 20 mM HEPES pH 7.5, 150 mM NaCl, 0.5 mM TCEP with 1 mM CaCl2; 25 °C; one-site model. To be noted: both partners purified.

In the case of MLC1-S K168A (domain or fragment), in assay [1], the Kd amounted to 1.2 nM, the dH is -47.7 kcal/mol and the stoichiometry N stood at 0.79.
As for MLC1-S Q169A (domain or fragment), in [1], the Kd is 2.3 nM, the dH is -48.8 kcal/mol and the stoichiometry N was 0.89.
In assay [2], PfMyoA-C^ELC peptide had a Kd of 303 nM, a dH of -14.4 kcal/mol and a stoichiometry N of 0.74.
For “T. gondii myosin light chain 1, short construct (MLC1-S) (domain or fragment)”, in [3], the Kd was found to be 4.6 nM and the dH is -49.7 kcal/mol. For the same molecule, in assay [1], the dissociation constant Kd came to 0.6 nM, the dH is -47.6 kcal/mol and the stoichiometry N is 0.81. In [4], this molecule registered a Kd of 4.7 nM and a dH of -39.1 kcal/mol.
In the case of “TgMyoA-C^ELC peptide (from UniProt O00934 777-798)”, the dissociation constant Kd in assay [5] was found to be 82 nM; in assay [6] it was 57 nM; in [7], 39 nM; in assay [8], 140 nM; in the assay with TgELC2 S102A (T. gondii), 76 nM; in the assay with TgELC2 S101A (T. gondii), 280 nM. The Kd in [9] was determined as 1100 nM; in [10], 36 nM; in the assay with TgELC2 E10A (T. gondii) it was 190 nM; with TgELC2 F79A (T. gondii), 280 nM. Moreover, the dH is -18 kcal/mol in [5]; -13 kcal/mol in [6]; -15 kcal/mol in [7]; -18 kcal/mol in assay [8]; -16 kcal/mol with TgELC2 S102A (T. gondii); -18 kcal/mol with TgELC2 S101A (T. gondii). The dH in assay [9] was -21 kcal/mol; in assay [10], -13 kcal/mol; with TgELC2 E10A (T. gondii), -17 kcal/mol; with TgELC2 F79A (T. gondii) it was -18 kcal/mol. Further, the stoichiometry N in assay [5] was 0.77; in assay [6], 0.81; in [7], 0.85; in assay [8], 0.77; with TgELC2 S102A (T. gondii) it was 0.79; in the assay with TgELC2 S101A (T. gondii), 0.88. Besides, the stoichiometry N in assay [9] worked out at 0.75; in assay [10] it was 1.05; with TgELC2 E10A (T. gondii) it was 0.79; in the assay with TgELC2 F79A (T. gondii), 0.84.
For VEWENCVSVIEAAILKHKYKQKVNKNIPSLLRVQAHIRKKMV (domain or fragment) [PfMyoA-C (775-816), recombinant, expressed with MTIP 77-204], in the assay with MTIP residues 77-204, the binding result is given as “binds”.

B1: P. falciparum essential light chain (PfELC) (natural protein)
chain: MASDMEEKFREAFILFSSCSDHIEMYKFFELMNSFGIILTNDEKAALPNDINMDYWLNFAKKHYNYEQPFKHINNVNEQNTNVQIKIDNFLGIMKALDTRLTESDLNILLQITNPENKSTLNLKTVSQKLTESI
notes: also called full-length PfELC; source: E. coli BL21-CodonPlus(DE3)-RIL, purified (Ni-IMAC, TEV, SEC)
On to B1, for which, in assay [11], the Kd was found to be 109 ± 6.2 nM, the dH is -13.4 ± 0.1 kcal/mol and the “stoichiometry N” value was 0.86 ± 0.01.

B2: PfELC S127D (phosphomimetic) (natural protein)
chain: MASDMEEKFREAFILFSSCSDHIEMYKFFELMNSFGIILTNDEKAALPNDINMDYWLNFAKKHYNYEQPFKHINNVNEQNTNVQIKIDNFLGIMKALDTRLTESDLNILLQITNPENKSTLNLKTVDQKLTESI
notes: source: E. coli, purified (expressed and purified under identical conditions as the wild type)
Regarding B2, in assay [11], binding was put at a Kd of 260 ± 26 nM, the dH is -12.6 ± 0.2 kcal/mol and the “stoichiometry N” value is 0.81 ± 0.01.

One may read the Kd as the concentration at which binding is half-saturated. Read a low Kd as a tighter complex. Usually stoichiometry N stands for a count of units in the complex or per binding partner.
